How the values were obtained:
[1] = target: HLA-B*44:03; assay: IEDB peptide-MHC binding, purified MHC/competitive/radioactivity; filed as Kd, often an IC50 or EC50 that approximates it; ≥ and ≤ were set here for values at or beyond the usual limits of such assays
[2] = target: HLA-B*40:02; assay: as above
[3] = target: HLA-B*45:01; assay: as above
[4] = target: HLA-B*18:01; assay: as above
[5] = target: HLA-B*44:02; assay: as above
[6] = target: HLA-B*40:01; assay: as above
[7] = target: HLA-A*02:01; assay: IEDB peptide-MHC binding, purified MHC/competitive/fluorescence; filed as Kd, often an IC50 or EC50 that approximates it; ≥ and ≤ were set here for values at or beyond the usual limits of such assays; conditions: source organism: Vaccinia virus WR
[8] = target: HLA-A*26:01; assay: as above; conditions: source organism: Bacillus anthracis str. A2012
[9] = target: HLA-B*27:05; assay: IEDB peptide-MHC binding, purified MHC/direct/fluorescence; filed as Kd, often an IC50 or EC50 that approximates it; ≥ and ≤ were set here for values at or beyond the usual limits of such assays; conditions: source organism: Shewanella violacea
[10] = target: HLA-B*07:02; assay: as above; conditions: source organism: Shewanella violacea
[11] = target: HLA-A*11:01; assay: as above; conditions: source organism: Shewanella violacea
[12] = target: HLA-A*69:01; assay: as above; conditions: source organism: Shewanella violacea
[13] = target: HLA-A*03:01; assay: as above; conditions: source organism: Shewanella violacea
[14] = target: HLA-A*26:01; assay: as above; conditions: source organism: Haemophilus influenzae
[15] = target: HLA-A*02:01; assay: as above; conditions: source organism: Shewanella violacea
[16] = target: HLA-B*58:01; assay: as above; conditions: source organism: Shewanella violacea
[17] = target: HLA-A*01:01; assay: as above; conditions: source organism: Shewanella violacea
[18] = target: HLA-B*40:01; assay: as above; conditions: source organism: Shewanella violacea
[19] = target: HLA-B*08:01; assay: as above; conditions: source organism: Haemophilus influenzae
[20] = target: HLA-A*31:01; assay: as above; conditions: source organism: Shewanella violacea
[21] = source organism: Lassa virus Josiah
[22] = source organism: Mammarenavirus machupoense
[23] = source organism: SARS coronavirus Tor2
[24] = source organism: Mammarenavirus lassaense

## AEAQMSIQL
[1]; [21]
  Kd: 106 nM
[2]; [21]
  Kd: 12.6 nM
[3]; [21]
  Kd: 246 nM
[4]; [21]
  Kd: ≥ 23700 nM
[5]; [21]
  Kd: 37.4 nM
[6]; [21]
  Kd: 22.9 nM

## EELSLMYETL
[1]; [22]
  Kd: 1320 nM
[2]; [22]
  Kd: 110 nM
[3]; [22]
  Kd: 952 nM
[4]; [22]
  Kd: 2460 nM
[5]; [22]
  Kd: 1540 nM
[6]; [22]
  Kd: 10400 nM

## KEFTRPLISG
[2]; [23]
  Kd: 19500 nM
[3]; [23]
  Kd: 2640 nM
[4]; [23]
  Kd: ≥ 70500 nM
[5]; [23]
  Kd: 10100 nM
[6]; [23]
  Kd: 1600 nM

## GLLEAGNSL
[7]
  Kd: 3.2 nM

## DEILLDGGAS
[1]; [24]
  Kd: ≥ 25900 nM
[2]; [24]
  Kd: 902 nM
[3]; [24]
  Kd: 5950 nM
[4]; [24]
  Kd: 70 nM
[5]; [24]
  Kd: ≥ 10000 nM
[6]; [24]
  Kd: ≥ 42900 nM

## IVIAPAMGM
[8]
  Kd: ≥ 20000 nM

## ETKGKRRLL
[9]
  Kd: ≥ 20000 nM
[10]
  Kd: ≥ 20000 nM
[11]
  Kd: ≥ 20000 nM
[12]
  Kd: ≥ 20000 nM
[13]
  Kd: ≥ 20000 nM
[14]
  Kd: 7120 nM
[15]
  Kd: ≥ 20000 nM
[16]
  Kd: ≥ 20000 nM
[17]
  Kd: ≥ 20000 nM
[18]
  Kd: ≥ 20000 nM
[19]
  Kd: 7470 nM
[20]
  Kd: ≥ 20000 nM

## NELTLIDFYL
[1]; [23]
  Kd: 51 nM
[2]; [23]
  Kd: 126 nM
[3]; [23]
  Kd: 1080 nM
[4]; [23]
  Kd: 604 nM
[5]; [23]
  Kd: 157 nM
[6]; [23]
  Kd: 231 nM

From the Immune Epitope Database (IEDB)
